# Experimental data as given in patent US20180282393A1 (IMMATICS BIOTECHNOLOGIES, published 2018).
# Target: T1, HLA-A*02:01 (human)
# T1 construct: Captured on streptavidin plates and detected with anti-b2m; also called peptide-receptive MHC molecules; MHC class I
# Assay: UV-ligand exchange, anti-b2m ELISA; peptide exchange yield grade (+ >=10%, ++ >=20%, +++ >=50, ++++ >=75%)
# Text: Candidate peptides for T cell based therapies according to the present invention were further tested for their MHC binding capacity (affinity). The individual peptide-MHC complexes were produced by UV-ligand exchange, where a UV-sensitive peptide is cleaved upon UV-irradiation, and exchanged with the peptide of interest as analyzed. Only peptide candidates that can effectively bind and stabilize the peptide-receptive MHC molecules prevent dissociation of the MHC complexes. To determine the yield of the exchange reaction, an ELISA was performed based on the detection of the light chain (β2m) of stabilized MHC complexes. The assay was performed as generally described in Rodenko et al. (Rodenko et al., 2006).
# 96 well MAXISorp plates (NUNC) were coated over night with 2 ug/ml streptavidin in PBS at room temperature, washed 4× and blocked for 1 h at 37° C. in 2% BSA containing blocking buffer. Refolded HLA-A*02:01/MLA-001 monomers served as standards, covering the range of 15-500 ng/ml. Peptide-MHC monomers of the UV-exchange reaction were diluted 100 fold in blocking buffer. Samples were incubated for 1 h at 37° C., washed four times, incubated with 2 ug/ml HRP conjugated anti-β2m for 1 h at 37° C., washed again and detected with TMB solution that is stopped with […]. Absorption was measured at 450 nm. Candidate peptides that show a high exchange yield (preferably higher than 50%, most preferred higher than 75%) are generally preferred for a generation and production of antibodies or fragments thereof, and/or T cell receptors or fragments thereof, as they show sufficient avidity to the MHC molecules and prevent dissociation of the MHC complexes.
row,Binder,peptide exchange yield [%]
1,ASDPILYRPVAV,50 to 75
2,GAIDLLHNV,20 to 50
3,TQTAVITRI,10 to 20
4,YMLDIFHEV,20 to 50
5,KLNDTYVNV,50 to 75
6,SLDGTELQL,50 to 75
7,VLASGFLTV,≥ 75
8,GLTDVIRDV,≥ 75
9,ALVEVTEHV,20 to 50
10,VVMEELLKV,20 to 50
11,MLAEKLLQA,10 to 20
12,GLASRILDA,50 to 75
13,YQDLLNVKM,50 to 75
14,SIFEGLLSGV,20 to 50
15,SLNGNQVTV,10 to 20
16,LVRDTQSGSL,20 to 50
17,GLESEELEPEEL,20 to 50
18,GLAFSLYQA,20 to 50
19,KLFGHLTSA,20 to 50
20,GLLVGSEKVTM,50 to 75
21,LILESIPVV,20 to 50
22,NLMASQPQL,50 to 75

row,Binder,peptide exchange yield [%]
1,LAYTLGVKQL,50 to 75
2,FLLRFSQDNA,20 to 50
3,TQTTHELTI,50 to 75
4,GLAPNTPGKA,50 to 75
5,SMNGGVFAV,20 to 50
6,ALWLPTDSATV,50 to 75
7,MISRTPEV,20 to 50
8,SLVSEQLEPA,50 to 75
9,FLLDQVQLGL,50 to 75
10,LLDEKVQSV,50 to 75
11,YTQPFSHYGQAL,50 to 75
12,YVVGGFLYQRL,50 to 75
13,GLAPFLLNAV,50 to 75
14,GLMKDIVGA,50 to 75
15,LLFAGTMTV,20 to 50
16,ATGNDRKEAAENSL,50 to 75
17,SLSPVILGV,≥ 75
18,VVVTGLTLV,20 to 50
19,ALYEYQPLQI,20 to 50
20,GLDVTSLRPFDL,50 to 75
21,SLDGFTIQV,20 to 50
22,FLPPAQVTV,20 to 50

row,Binder,peptide exchange yield [%]
1,RLPNAGTQV,≥ 75
2,KLSDSATYL,50 to 75
3,VLPKLYVKL,20 to 50
4,SLLDTLREV,50 to 75
5,LLANGVYAA,10 to 20
6,NLREGDQLL,50 to 75
7,STYGGGLSV,50 to 75
8,FVLDTSESV,50 to 75
9,LLSGDLIFL,50 to 75
10,TASAITPSV,50 to 75
11,VAIGGVDGNVRL,20 to 50
12,IVREFLTAL,50 to 75
13,SLYNLGGSKRISI,≥ 75
14,PAVLQSSGLYSL,20 to 50
15,SMHQMLDQTL,20 to 50
16,LLPPPPPPA,50 to 75
17,KVVGKDYLL,10 to 20
18,IAAIRGFLV,50 to 75
19,MLTELEKAL,20 to 50
20,VLAEGGEGV,50 to 75
21,LLRFSQDNA,50 to 75
22,YTAQIGADIAL,50 to 75
